Assay results as given in patent US20190322762A1.

Tests used:
[1] = biological target: ENO1 mutant 1-189 (human) (UniProt P06733); experiment: ELISA, 400 ng protein coated, 10 microgram of EN10 mAb
[2] = biological target: ENO1 mutant 1-297 (human) (UniProt P06733); experiment: as above
[3] = biological target: ENO1 with amino acid residues 297 to 434 deleted (human) (UniProt P06733); experiment: ELISA, ENO1 deletion mutant Δ297-434 coated, 10 microgram of EN10 mAb
Chain of ENO1 with amino acid residues 297 to 434 deleted (human) (P06733 1-296, stated change not applied): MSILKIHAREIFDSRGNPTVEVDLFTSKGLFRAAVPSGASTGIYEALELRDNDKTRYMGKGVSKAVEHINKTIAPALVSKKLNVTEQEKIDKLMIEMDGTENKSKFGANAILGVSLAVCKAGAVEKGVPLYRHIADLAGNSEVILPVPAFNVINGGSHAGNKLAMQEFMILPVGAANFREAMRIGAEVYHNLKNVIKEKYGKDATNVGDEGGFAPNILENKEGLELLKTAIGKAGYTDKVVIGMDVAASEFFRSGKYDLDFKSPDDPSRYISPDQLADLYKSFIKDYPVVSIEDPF

B1: EN10 mAb (antibody, V domains shown)
VH: EVQLQQSGPELVKPGASVKMSCKASGYTFTSCVMNWVKQKPGQGLEWIGYINPYNDGTKYNEKFKGKATLTSDKSSSTAYMELSSLTSEDSAVYYCAREGFYYGNFDNWGQGTTLTVSS
VL: DIQMTQSPASLSASVGETVTITCRASENIYSYLTWYQQKQGKSPQLLVYNAKTLPEGVPSRFSGSGSGTQFSLKINSLQPEDFGSYYCQHHYGTPYTFGGGTKLEITR
OD405 [1]: 1.43 OD405 | OD405 as percent of that of the wild type ENO1 [1]: 42% | OD405 [2]: 1.56 OD405 | OD405 as percent of that of the wild type ENO1 [2]: 39% | OD450 [3]: 0.47
